Experimental data from PMC8125230, “Crystal Structure of Escherichia coli Agmatinase: Catalytic Mechanism and Residues Relevant for Substrate Specificity” (International Journal of Molecular Sciences, 2021).

Target: the molecule itself
Assay: crystal structure; sitting drop vapor diffusion at 18 °C; protein 12 mg/mL in 25 mM Tris-HCl pH 8.0, 2 mM MnCl2, 100 mM guanidine chloride; two crystal forms (7LOL at 1.8 Å, 7LOX at 3.2 Å); oligomeric state analysed with PISA

B1: Agmatinase from Escherichia coli (enzyme)
chain: MSTLGHQYDNSLVSNAFGFLRLPMNFQPYDSDADWVITGVPFDMATSGRAGGRHGPAAIRQVSTNLAWEHNRFPWNFDMRERLNVVDCGDLVYAFGDAREMSEKLQAHAEKLLAAGKRMLSFGGDHFVTLPLLRAHAKHFGKMALVHFDAHTDTYANGCEFDHGTMFYTAPKEGLIDPNHSVQIGIRTEFDKDNGFTVLDACQVNDRSVDDVIAQVKQIVGDMPVYLTFDIDCLDPAFAPGTGTPVIGGLTSDRAIKLVRGLKDLNIVGMDVVEVAPAYDQSEITALAAATLALEMLYIQAAKKGE
notes: Agmatinase (EcAGM), Escherichia coli; wild type; gene cloned into pQE60; residues 11 to 26 of the N-terminal end are modeled in the structure; The hexamer (dimer of trimers) is built by crystal symmetry: 7LOL has one chain and 7LOX three chains in the asymmetric unit; also called EcAGM; E. coli AGM; source: E. coli BL21(DE3), purified (HisTrap HP, S-200 size exclusion)
  stoichiometry N: 6
